Source: paper PMC10993987 (Molecular Cancer Therapeutics, 2023)

B1: wild-type recombinant human IL12 (complex)
chain 1: RNLPVATPDPGMFPCLHHSQNLLRAVSNMLQKARQTLEFYPCTSEEIDHEDITKDKTSTVEACLPLELTKNESCLNSRETSFITNGSCLASRKTSFMMALCLSSIYEDLKMYQVEFKTMNAKLLMDPKRQIFLDQNMLAVIDELMQALNFNSETVPQKSSLEEPDFYKTKIKLCILLHAFRIRAVTIDRVMSYLNAS
chain 2: IWELKKDVYVVELDWYPDAPGEMVVLTCDTPEEDGITWTLDQSSEVLGSGKTLTIQVKEFGDAGQYTCHKGGEVLSHSLLLLHKKEDGIWSTDILKDQKEPKNKTFLRCEAKNYSGRFTCWWLTTISTDLTFSVKSSRGSSDPQGVTCGAATLSAERVRGDNKEYEYSVECQEDSACPAAEESLPIEVMVDAVHKLKYENYTSSFFIRDIIKPDPPKNLQLKPLKNSRQVEVSWEYPDTWSTPHSYFSLTFCVQVQGKSKREKKDRVFTDKTSATVICRKNASISVRAQDRYYSSSWSEWASVPCS

Legend:
[1] = target: His-tagged Fc-fused human IL12Rβ2 (human) (UniProt Q99665); experiment: SPR
[2] = target: T1, His-tagged Fc-fused human IL12Rβ2 (human, UniProt Q99665 24-622); experiment: SPR
T1 sequence (looked up): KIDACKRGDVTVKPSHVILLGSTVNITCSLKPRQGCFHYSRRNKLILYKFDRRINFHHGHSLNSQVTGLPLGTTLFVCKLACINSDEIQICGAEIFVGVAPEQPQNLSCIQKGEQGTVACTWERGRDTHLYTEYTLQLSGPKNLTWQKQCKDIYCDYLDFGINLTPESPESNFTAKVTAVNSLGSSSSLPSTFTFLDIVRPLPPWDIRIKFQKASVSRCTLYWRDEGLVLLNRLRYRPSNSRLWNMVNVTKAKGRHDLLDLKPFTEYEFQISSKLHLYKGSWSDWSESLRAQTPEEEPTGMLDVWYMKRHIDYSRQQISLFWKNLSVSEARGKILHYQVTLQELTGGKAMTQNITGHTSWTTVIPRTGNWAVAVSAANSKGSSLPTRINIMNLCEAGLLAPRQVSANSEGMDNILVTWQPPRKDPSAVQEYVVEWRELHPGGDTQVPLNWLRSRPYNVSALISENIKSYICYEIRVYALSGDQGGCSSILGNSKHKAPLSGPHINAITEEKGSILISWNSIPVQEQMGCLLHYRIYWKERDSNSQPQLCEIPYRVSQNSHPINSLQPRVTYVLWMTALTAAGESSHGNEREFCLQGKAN

Molecule	Kd [1]	Kd [2]
proteolytically cleaved XTX301 (active IL12 released from XTX301) (ligand)	7.97 nM	
B1		0.93 nM
